Laboratory results: US20170096460

Legend:
ZFP 46025 (synthetic) = assay: cell_activity; details: AAV9 in mouse striatum, 5 weeks, qRT-PCR
ZFP 45643 (synthetic) = assay: cell_activity; details: AAV9 in mouse striatum, 5 weeks, qRT-PCR; 70% at 12 weeks

Q: Which activity (ZFP 46025 (synthetic)) does the source give for “mutant Htt allele expanded CAG repeat (Q50, 48 CAGs)” here?
A: 74 % repression

Q: And the activity (ZFP 45643 (synthetic))?
A: 79 % repression
